Experimental data as given in the supplement of paper PMC9170038.

System: K4 kissing-loop RNA reporter
Test: apparent KD of K4 kissing-loop reporter; higher = weaker reporter binding
Conditions: Eterna round: R107
Method: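 RNA-MaP round R107: designed RNA switches with theophylline, tryptophan, arginine or FMN aptamers are transcribed on-chip within common flanks. They are titrated with a labelled K4 kissing-loop RNA reporter in RNA-MaP buffer (100 mM Tris pH 7.5, 80 mM KCl, 4 mM MgCl2), without ligand or with the indicated ligand. Median apparent KD per design.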

[1] = input ligand: theophylline 20 uM
[2] = input ligand: tryptophan 2.4 mM
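Note: bound reporter read as fluorescence of individual clusters on recovered sequencing chips by microscopy, with normalized cluster intensities fitted with a binding model.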

GAUUCCCAAGCGGCCGCCACUUAUAGUGAUGUUAUAGGGACUGCGGAUCAGGACAAUCAUACAUAAAGGACCGGGCUAUUCUGAC [theeternabot_exclusion_KL_Trp_B_1]
apparent KD of K4 kissing-loop reporter (input ligand: FMN 200 uM): 0.264 µM
apparent KD of K4 kissing-loop reporter (input ligand: arginine 13.2 mM): 0.246 µM
apparent KD of K4 kissing-loop reporter (input ligand: none): 0.305 µM
apparent KD of K4 kissing-loop reporter [1]: 0.255 µM
apparent KD of K4 kissing-loop reporter [2]: 0.261 µM

GUGCGGUGGAGGUUACCGCUACUCUGAGAAGGAGCGCAGAUGACUGCAGGUAGGUCGCUUAGAGCUUGCAGUGAUGUUGCAAGUU [Anquatbiat]
apparent KD of K4 kissing-loop reporter (input ligand: FMN 200 uM): 0.199 µM
apparent KD of K4 kissing-loop reporter (input ligand: arginine 13.2 mM): 0.147 µM
apparent KD of K4 kissing-loop reporter (input ligand: none): 0.159 µM
apparent KD of K4 kissing-loop reporter [1]: 0.132 µM
apparent KD of K4 kissing-loop reporter [2]: 0.177 µM

AACGCUGCCUGAGGAUAUAGAAACGAGUGAUGUUCGUGGAACGAGACCAGUGAUGUUGGCCUAUUUCUAGAAGGCAGGCAACCGC [Exclusion FMN B GF 1]
apparent KD of K4 kissing-loop reporter (input ligand: FMN 200 uM): 0.155 µM
apparent KD of K4 kissing-loop reporter (input ligand: arginine 13.2 mM): 0.121 µM
apparent KD of K4 kissing-loop reporter (input ligand: none): 0.148 µM
apparent KD of K4 kissing-loop reporter [1]: 0.123 µM
apparent KD of K4 kissing-loop reporter [2]: 0.125 µM

UUUAUUAAGACGGCCGCCACUGAAUUAGAGUGAUGUUCUAUAAUUUCUAAAUUAAAUUUAUUCAACAGGACCGGGUCAAUUAUUA [JR_SSTryptoB_Sub011]
apparent KD of K4 kissing-loop reporter (input ligand: FMN 200 uM): 0.384 µM
apparent KD of K4 kissing-loop reporter (input ligand: arginine 13.2 mM): 0.364 µM
apparent KD of K4 kissing-loop reporter (input ligand: none): 0.382 µM
apparent KD of K4 kissing-loop reporter [1]: 0.392 µM
apparent KD of K4 kissing-loop reporter [2]: 0.314 µM

AAUCAAUACAGAAGGAGCGUGACAUUUGCUAUUGUAAUUUUAGCUAGUGAUGUUAGCAUUUCACAGGUAGGUCGCUGUACAUUUA [JR_SSArginiB_Sub010]
apparent KD of K4 kissing-loop reporter (input ligand: FMN 200 uM): 0.275 µM
apparent KD of K4 kissing-loop reporter (input ligand: arginine 13.2 mM): 0.324 µM
apparent KD of K4 kissing-loop reporter (input ligand: none): 0.354 µM
apparent KD of K4 kissing-loop reporter [1]: 0.415 µM
apparent KD of K4 kissing-loop reporter [2]: 0.259 µM

UUAGCGACAAGUCAGAUUCUGACAAUUGAUACCAGAUAGAAUUCUAUCCCUUGGCAGCAGUGAUGUUGUUGCAAUAAGUCGCAUU [AK2 Exc Theophylline A]
apparent KD of K4 kissing-loop reporter (input ligand: FMN 200 uM): 0.322 µM
apparent KD of K4 kissing-loop reporter (input ligand: arginine 13.2 mM): 0.253 µM
apparent KD of K4 kissing-loop reporter (input ligand: none): 0.317 µM
apparent KD of K4 kissing-loop reporter [1]: 0.282 µM
apparent KD of K4 kissing-loop reporter [2]: 0.266 µM

UGGAUGUAGUGAUGUUAUAUAGAGAGUGAUACCAGUUUAGAGAAGAACCCUUGGCAGCAUAGAAGAGUAUCAUUGGAGAAGAAUG [ExTheophyl.Ar]
apparent KD of K4 kissing-loop reporter (input ligand: FMN 200 uM): 0.308 µM
apparent KD of K4 kissing-loop reporter (input ligand: arginine 13.2 mM): 0.347 µM
apparent KD of K4 kissing-loop reporter (input ligand: none): 0.32 µM
apparent KD of K4 kissing-loop reporter [1]: 0.334 µM
apparent KD of K4 kissing-loop reporter [2]: 0.244 µM

CGACUAGUCUUGCAACCCUAGUCGAUAGACUAGGAUAUCAGGAAACUGAGAAGGAGUCUACUUGCAGUGAUGUUGCAAGAAUAAU [[F]''-[K]'-[F]'-[F1]-[F2]-[K1]-[K2]_Design6]
apparent KD of K4 kissing-loop reporter (input ligand: FMN 200 uM): 0.163 µM
apparent KD of K4 kissing-loop reporter (input ligand: arginine 13.2 mM): 0.176 µM
apparent KD of K4 kissing-loop reporter (input ligand: none): 0.17 µM
apparent KD of K4 kissing-loop reporter [1]: 0.168 µM
apparent KD of K4 kissing-loop reporter [2]: 0.156 µM

CCUAUCUCAUACGAUACCAGUCAACGAGUGAUGUUCGAAUAAAUAAAUUUGCCAUAUAAUGACCCUUGGCAGCGUAUGGGAUAGG [Ex Theophylline B K4 14]
apparent KD of K4 kissing-loop reporter (input ligand: FMN 200 uM): 0.352 µM
apparent KD of K4 kissing-loop reporter (input ligand: arginine 13.2 mM): 0.373 µM
apparent KD of K4 kissing-loop reporter (input ligand: none): 0.337 µM
apparent KD of K4 kissing-loop reporter [1]: 0.431 µM
apparent KD of K4 kissing-loop reporter [2]: 0.334 µM

UUAUAACCCAGUGAUGUUGGGUAGCGGCCACGAGGACCGGUACGGCCGCCACUCGAGGUUUAACCAGUGAUGUUGGACUAUAUAA [Same state Tryptophan A GF 4]
apparent KD of K4 kissing-loop reporter (input ligand: FMN 200 uM): 0.051 µM
apparent KD of K4 kissing-loop reporter (input ligand: arginine 13.2 mM): 0.0352 µM
apparent KD of K4 kissing-loop reporter (input ligand: none): 0.047 µM
apparent KD of K4 kissing-loop reporter [1]: 0.0345 µM
apparent KD of K4 kissing-loop reporter [2]: 0.0237 µM

AGGAUCACGUCAGUGAUGUUGACAAGAGAUACCAGAGACGAAAGUCUCCCUUGGCAGCUCACUGUGAUCCGUGACAAAGGUCACA [Omei KL hio A SS C v1]
apparent KD of K4 kissing-loop reporter (input ligand: FMN 200 uM): 0.146 µM
apparent KD of K4 kissing-loop reporter (input ligand: arginine 13.2 mM): 0.0632 µM
apparent KD of K4 kissing-loop reporter (input ligand: none): 0.0983 µM
apparent KD of K4 kissing-loop reporter [1]: 0.154 µM
apparent KD of K4 kissing-loop reporter [2]: 0.076 µM

AGAGAUAUAUGAGGAUAUGGGAUAGUUAAUGAGUUAGUUUUAGUGUUGUUUGGUUAGUGAUGUUAUUUAGAAGGCGUGAGUGAUG [rxxvgmullin]
apparent KD of K4 kissing-loop reporter (input ligand: FMN 200 uM): 0.106 µM
apparent KD of K4 kissing-loop reporter (input ligand: arginine 13.2 mM): 0.0758 µM
apparent KD of K4 kissing-loop reporter (input ligand: none): 0.0817 µM
apparent KD of K4 kissing-loop reporter [1]: 0.109 µM
apparent KD of K4 kissing-loop reporter [2]: 0.0711 µM

UGAGGAGAAUAUGAUACCAGCAGAGAGAGAGAGGAAGUAUAGUGAUGUUAUAUGAGAUAAUGCCCUUGGCAGCAUAAGAAGAAGG [#19 K4 Theophylline B Same State]
apparent KD of K4 kissing-loop reporter (input ligand: FMN 200 uM): 0.163 µM
apparent KD of K4 kissing-loop reporter (input ligand: arginine 13.2 mM): 0.104 µM
apparent KD of K4 kissing-loop reporter (input ligand: none): 0.111 µM
apparent KD of K4 kissing-loop reporter [1]: 0.178 µM
apparent KD of K4 kissing-loop reporter [2]: 0.145 µM

GGGUCUGUCGGAAGGAGCGCACUAUGGAGUGAUGUUCCAUGACCGCACAGCUUGCGGUCAGUGCAGGUAGGUCGCCGAUAGCUUU [Usquso]
apparent KD of K4 kissing-loop reporter (input ligand: FMN 200 uM): 0.277 µM
apparent KD of K4 kissing-loop reporter (input ligand: arginine 13.2 mM): 0.169 µM
apparent KD of K4 kissing-loop reporter (input ligand: none): 0.197 µM
apparent KD of K4 kissing-loop reporter [1]: 0.286 µM
apparent KD of K4 kissing-loop reporter [2]: 0.164 µM

AUACCUCUACGAGUGAUGUUUGUUGAGGAUACCAGCAUGUAUAGUUGCCCUUGGCAGCCUUGGCUCGUGCGCUCCCUCCGAACCG [theeternabot_exclusion_KL_Theo_A_30]
apparent KD of K4 kissing-loop reporter (input ligand: FMN 200 uM): 0.296 µM
apparent KD of K4 kissing-loop reporter (input ligand: arginine 13.2 mM): 0.24 µM
apparent KD of K4 kissing-loop reporter (input ligand: none): 0.291 µM
apparent KD of K4 kissing-loop reporter [1]: 0.277 µM
apparent KD of K4 kissing-loop reporter [2]: 0.247 µM

GUACCUUGGAAACAAGGACCGCUAACCGAAGGAGCGCGUGAAAACGCAGGUAGGUCGCGGUAGCGGAGUGAUGUUCCGCGAGAGG [Excluson Arginine A GF 14]
apparent KD of K4 kissing-loop reporter (input ligand: FMN 200 uM): 0.166 µM
apparent KD of K4 kissing-loop reporter (input ligand: arginine 13.2 mM): 0.235 µM
apparent KD of K4 kissing-loop reporter (input ligand: none): 0.196 µM
apparent KD of K4 kissing-loop reporter [1]: 0.268 µM
apparent KD of K4 kissing-loop reporter [2]: 0.165 µM

AGGCACGAGCAAGGAUAUCGAGUAGAGUGAUGUUCUGCCUGGGUUGGCUCGGAAGAGCCUUCUCAGCGAGAAGGUGCUCGUGCCU [#2 Same State - FMN A Attempt #19 (HarryS)]
apparent KD of K4 kissing-loop reporter (input ligand: FMN 200 uM): 0.235 µM
apparent KD of K4 kissing-loop reporter (input ligand: arginine 13.2 mM): 0.604 µM
apparent KD of K4 kissing-loop reporter (input ligand: none): 0.747 µM
apparent KD of K4 kissing-loop reporter [1]: 0.923 µM
apparent KD of K4 kissing-loop reporter [2]: 0.888 µM

UGUCAUUGGUCUGAUACCAGAAGAAAUCUGGAGUGAUGUUCCAAGUACGACAAAAGUCGCUUCCCUUGGCAGCAGACCGAUGACU [TheoBS 21 #SwitchBubble 13 #StaticStem]
apparent KD of K4 kissing-loop reporter (input ligand: FMN 200 uM): 0.705 µM
apparent KD of K4 kissing-loop reporter (input ligand: arginine 13.2 mM): 0.51 µM
apparent KD of K4 kissing-loop reporter (input ligand: none): 0.638 µM
apparent KD of K4 kissing-loop reporter [1]: 0.406 µM
apparent KD of K4 kissing-loop reporter [2]: 0.683 µM

AGGAGCGUGGGAUGAAAAUCGCACGCUCCUCGAGGACCGGUACGGCCGCCACUCGCUCGCGCCGAGUGAUGUUCGGCCGGCGAAC [#2 Same State - Tryptophan A Attempt #12 (HarryS)]
apparent KD of K4 kissing-loop reporter (input ligand: FMN 200 uM): 0.265 µM
apparent KD of K4 kissing-loop reporter (input ligand: arginine 13.2 mM): 0.244 µM
apparent KD of K4 kissing-loop reporter (input ligand: none): 0.312 µM
apparent KD of K4 kissing-loop reporter [1]: 0.217 µM
apparent KD of K4 kissing-loop reporter [2]: 0.556 µM

AGUACAGACACGGCCGCCACUCAGAAGAAGAUAGUAGUGAUGUUACUGAUGAUGAGAAUAAUAAAGAGGACCGGGUGUUGUGCAA [#09 K4 Tryptophan B Same State]
apparent KD of K4 kissing-loop reporter (input ligand: FMN 200 uM): 0.107 µM
apparent KD of K4 kissing-loop reporter (input ligand: arginine 13.2 mM): 0.1 µM
apparent KD of K4 kissing-loop reporter (input ligand: none): 0.125 µM
apparent KD of K4 kissing-loop reporter [1]: 0.113 µM
apparent KD of K4 kissing-loop reporter [2]: 0.0715 µM
